We go through one protein from FireProtDB (doi:10.1021/bi00210a045).

The conditions of the series: Escherichia coli (strain K12), Thermal, DSC, reversible: yes, whole UniProt chain shown.
Where [1] appears, read: pH 2.5, 25 °C, glycine or acetate 5 mM or 10 mM.
Setting [2] is: pH 10.3, 25 °C, glycine or CAPS 5 mM or 10 mM.
Where [3] appears, read: pH 10.3, Sodium glycinate 50 mM.

B1: Chemotaxis protein CheY wild type, P0AE67 (protein)
chain: MADKELKFLVVDDFSTMRRIVRNLLKELGFNNVEEAEDGVDALNKLQAGGYGFVISDWNMPNMDGLELLKTIRADGAMSALPVLMVTAEAKKENIIAAAQAGASGYVVKPFTAATLEEKLNKIFEKLGM
With B1, the “heat capacity change of unfolding” value under setting [1] is 0.89 kcal/mol/K; the “heat capacity change of unfolding” value (pH 7, Sodium phosphate 50 mM) came to 0.69 kcal/mol/K; the “heat capacity change of unfolding” value under setting [2] is 0.84 kcal/mol/K; the “heat capacity change of unfolding” value under setting [3] was found to be 0.84 kcal/mol/K. Moreover, the unfolding free energy amounted to 12.1 kJ/mol under setting [1] and 20.5 kJ/mol under setting [2]. For the same protein, the Tm came out at 58 °C (pH 7, Sodium phosphate 50 mM) and 55 °C under setting [3]. For the same protein, the “unfolding enthalpy (calorimetric)” value is, setting by setting: (pH 7, Sodium phosphate 50 mM) 350 kJ/mol; under setting [3], 280 kJ/mol.

The Tm is the temperature at which the thermal transition is half complete.
